Reference: US20240101716A1 (LA NOVA MEDICINES DEVELOPMENT, published 2024)

Tests used:
[1] = target: PD-L1 (blocking assay of Example 11) (UniProt Q9NZQ7 19-239, limits assumed); test: cell-based or functional assay
PD-L1 expressed on cells = target: T1, PD-L1 expressed on cells (UniProt Q9NZQ7 19-290, limits assumed); test: FACS binding test on PD-L1 cell line, Geom.Mean; unit from the axis log(nm)
T1 construct: whole, on cells

[2] = target: T2, recombinant human SIRPα variant 2 protein (human, UniProt P78324 31-370, limits assumed); test: ELISA on coated recombinant human SIRPα v2, OD450
T2 construct: polymorphic variant 2; also called SIRPα v2; hSIRPαV2
Experimental: After coating of the antigen, the wells were blocked with PBS/0.05% Tween (PBST) with 1% BSA for 1 h at RT.
Between all incubation steps, the wells of the plate were washed with PBST three times. […]

T1 sequence (Q9NZQ7 19-290 limits assumed): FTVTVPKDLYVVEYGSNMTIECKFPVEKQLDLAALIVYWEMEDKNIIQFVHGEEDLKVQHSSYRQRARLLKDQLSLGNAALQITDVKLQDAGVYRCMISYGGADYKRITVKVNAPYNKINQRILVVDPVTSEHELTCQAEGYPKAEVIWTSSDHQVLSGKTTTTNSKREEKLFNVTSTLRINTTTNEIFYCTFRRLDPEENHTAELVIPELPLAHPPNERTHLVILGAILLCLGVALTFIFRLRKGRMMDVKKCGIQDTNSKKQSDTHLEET
PD-L1 (blocking assay of Example 11), sequence (Q9NZQ7 19-239 limits assumed): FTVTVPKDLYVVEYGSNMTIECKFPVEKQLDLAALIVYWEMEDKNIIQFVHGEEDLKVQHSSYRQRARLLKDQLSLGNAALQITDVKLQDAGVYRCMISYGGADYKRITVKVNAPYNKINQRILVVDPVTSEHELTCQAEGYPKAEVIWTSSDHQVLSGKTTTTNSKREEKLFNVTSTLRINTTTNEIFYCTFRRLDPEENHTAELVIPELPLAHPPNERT
T2 sequence (P78324 other isoform, or with tags, fused parts or gaps mutant limits assumed): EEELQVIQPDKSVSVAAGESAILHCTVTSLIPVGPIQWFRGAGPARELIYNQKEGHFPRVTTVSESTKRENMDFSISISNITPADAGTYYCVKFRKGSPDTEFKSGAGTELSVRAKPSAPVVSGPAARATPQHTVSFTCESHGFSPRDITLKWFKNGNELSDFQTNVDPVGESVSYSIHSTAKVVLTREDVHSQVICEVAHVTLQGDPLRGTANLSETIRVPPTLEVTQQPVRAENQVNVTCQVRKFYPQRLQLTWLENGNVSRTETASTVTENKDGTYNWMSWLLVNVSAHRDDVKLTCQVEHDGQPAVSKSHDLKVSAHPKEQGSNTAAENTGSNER

Binder | EC50, luminescence (RLU) in the PD-1/PD-L1 Blockade Assay [1] [pM] | EC50 (PD-L1 expressed on cells) [pM] | EC50 [2] [µg/mL]
PD-L1/SIRPa-LN2 (bispecific antibody, human IgG4 S228P, kappa, Format IV: sdAb at the N-terminus of the light chain (300A6A6); also called PD-L1/SIRPα-LN2) heavy: not shown light: EVQLVESGGGLVQPGGSLRLSCAASGRTFVTYGMGWFRQAPGKGREFVSAISWSGSMTSYGDSVKGRFTISRDNAKNTLYLQMNSLRPEDTAVYYCAAALGAVVYTTREPYTYWGQGTLVTVSSGGGGSGGGGSGGGGSDIQMTQSPSSLSASVGDRVTITCQASQDIGNKLIWYQQKPGKAPKLLIYYVTNLPGGVPSRFSGSGSGTDFTLTISSLQPEDFATYYCLQYKQNPLTFGQGTKLEIKRTVAAPSVFIFPPSDEQLKSGTASVVCLLNNFYPREAKVQWKVDNALQSGNSQESVTEQDSKDSTYSLSSTLTLSKADYEKHKVYACEVTHQGLSSPVTKSFNRGEC | 873 | 205 | 
PD-L1/SIRPa-HC1 (bispecific antibody, human IgG4 S228P, kappa, Format I: AS11948SVH12 sdAb at the C-terminus of IgG4 Fc of 02-hz52 (248G3F6); also called PD-L1/SIRPα-HC1) heavy: not shown light: EIVLTQSPGTLSLSPGERATLSCRASSSVSSSYLYWYQQKPGQAPRLLIYSTSNLASGIPDRFSGSGSGTDYTLTISRLEPEDAAVYFCHQWYSYPRTFGGGTKVEIKRTVAAPSVFIFPPSDEQLKSGTASVVCLLNNFYPREAKVQWKVDNALQSGNSQESVTEQDSKDSTYSLSSTLTLSKADYEKHKVYACEVTHQGLSSPVTKSFNRGEC | 900 | 321 | 
PD-L1/SIRPa-HN2 (bispecific antibody, human IgG4 S228P, kappa, Format II: sdAb at the N-terminus of the heavy chain (300A6A6); also called PD-L1/SIRPα-HN2) heavy: not shown light: DIQMTQSPSSLSASVGDRVTITCQASQDIGNKLIWYQQKPGKAPKLLIYYVTNLPGGVPSRFSGSGSGTDFTLTISSLQPEDFATYYCLQYKQNPLTFGQGTKLEIKRTVAAPSVFIFPPSDEQLKSGTASVVCLLNNFYPREAKVQWKVDNALQSGNSQESVTEQDSKDSTYSLSSTLTLSKADYEKHKVYACEVTHQGLSSPVTKSFNRGEC | 908 | 269 | 
PD-L1/SIRPa-LC2 (bispecific antibody, human IgG4 S228P, kappa, Format III: sdAb at the C-terminus of the light chain (300A6A6); also called PD-L1/SIRPα-LC2) heavy: not shown light: DIQMTQSPSSLSASVGDRVTITCQASQDIGNKLIWYQQKPGKAPKLLIYYVTNLPGGVPSRFSGSGSGTDFTLTISSLQPEDFATYYCLQYKQNPLTFGQGTKLEIKRTVAAPSVFIFPPSDEQLKSGTASVVCLLNNFYPREAKVQWKVDNALQSGNSQESVTEQDSKDSTYSLSSTLTLSKADYEKHKVYACEVTHQGLSSPVTKSFNRGECGGGGSGGGGSGGGGSEVQLVESGGGLVQPGGSLRLSCAASGRTFVTYGMGWFRQAPGKGREFVSAISWSGSMTSYGDSVKGRFTISRDNAKNTLYLQMNSLRPEDTAVYYCAAALGAVVYTTREPYTYWGQGTLVTVSS | 1560 | 912 | 
248G3F6 (antibody, V domains shown, murine hybridoma antibody; also called mouse anti-SIRPα mAb 248G3F6) VH: EVQLQQSGAELVKPGASVKLSCTASGFNFEDTYMHWVKQRPDQGLEWIGRIDPADGDTKYNPKFQDKATITVDTSSNTAYLQLSSLTSEDTAVYYCVRGNYVNWGQGTTLTVSS VL: QIVLIQSPAIMSASPGERVTLTCRASSSVSSSYLYWYQQKPGSSPKLWIYSTSNLASGVPARFSGSGSGTSYSLTISSMEAEDAASYFCHQWYSYPRTFGGGTKLEIK |  |  | 0.0136
300A6A6 (antibody, V domains shown, murine hybridoma antibody; also called mouse anti-SIRPα mAb 300A6A6) VH: QVQLQQSGTELVKPGSSVKISCKASGYTFTSNYIHWIRQQPGNGLEWIGWIYPGDGDTNYNQKFNGKATLTADKSSSTAYMQLSSLTSEDYAVYFCAINYGGIWFAYWGQGTLVTVSS VL: DIQMTQSPSSMSASLGDRVTITCQASQDIGNKLIWFQQKPGKSPRLMIHYVTNLPGGVPLRFSGSRSGSDYSLTISSLESEDMADYYCLQYKQNPLTFGSGTKLEIK |  |  | 0.0105
